In US20020103111A1, “Inhibitors of MAdCAM-1-mediated interactions and methods of use therefor” (Millennium Pharmaceuticals, Inc., priority 1996, published 2002) one finds % Adhesion Inhibition and IC50 data, which are given here for 33 molecules.

Several values for one entry are separate records, joined by “and”; a condition that tells them apart may be missing. Equal entries are not always repeated. Bridge positions count the residues as written; N and C are the ends. Ends that are not written are not given here. * marks the point of attachment. Butanoyl(4-pyren-1-yl) = O=C(CCCc1ccc2ccc3cccc4ccc1c2c34)*; Tpa = triphenylacetyl, O=C(C(c1ccccc1)(c1ccccc1)c1ccccc1)*; Acetyl(1-pyrenyl) = O=C(Cc1ccc2ccc3cccc4ccc1c2c34)*; Phenylacetyl(4-Ph) = O=C(Cc1ccc(-c2ccccc2)cc1)*; Benzoyl(4-heptyl) = CCCCCCCc1ccc(C(=O)*)cc1; Acetyl(1-naphthyl) = O=C(Cc1cccc2ccccc12)*; Diphenylacetyl = O=C(C(c1ccccc1)c1ccccc1)*; cPrCO(2,2,3,3-Me4) = CC1(C)C(C(=O)*)C1(C)C; Ibuprofenoyl = CC(C)Cc1ccc(C(C)C(=O)*)cc1; Hexanoyl(6-Ph) = O=C(CCCCCc1ccccc1)*; PhAc = O=C(Cc1ccccc1)*

Test [1] addresses human α4β7 integrin (human), P13612. The test can be described thus: inhibition of HUT 78 cell adhesion to murine MAdCAM-1/mCk at 500 µM.
Test [2] has the same target. Briefly: inhibition of HUT 78 cell adhesion to murine MAdCAM-1/mCk.
Test [3] has the same target. The test can be described thus: inhibition of HUT 78 cell adhesion to murine MAdCAM-1/mCk at 250 µM.
For test [4], the target named is human α4β7 integrin (human) (UniProt P13612). The test can be described thus: inhibition of HUT 78 cell adhesion to murine MAdCAM-1/mCk.
Test [5] has the same target. Briefly: inhibition of HUT 78 cell adhesion to murine MAdCAM-1/mCk at 500 µM.
Test [6] has as its target human α4β7 integrin (human), P13612. The test can be described thus: inhibition of RPMI 8866 cell adhesion to huMAdCAM-1-Ig.
The target of test [7] is human α4β7 integrin (human) (UniProt P13612). The test can be described thus: inhibition of HUT 78 cell adhesion to murine MAdCAM-1/mCk at 50 µM.

Molecule Ac-LDTSF (not fully specified (C-terminus); printed as Ac-Leu-Asp-Thr-Ser-Phe) [Ac-Leu-Asp-Thr-Ser-Phe] yielded a % Adhesion Inhibition in test [1] of 86%. Besides, in test [2], the IC50 came to 144 µM.

As to Ac-CLDTSLC (disulfide 1-7) [Ac-Cys*-Leu-Asp-Thr-Ser-Leu-Cys*], in test [3], the % Adhesion Inhibition was determined as 51%. In test [2], this molecule had an IC50 of 102 µM.

As for Ac-LDSSL (not fully specified (C-terminus); printed as Ac-Leu-Asp-Ser-Ser-Leu) [Ac-Leu-Asp-Ser-Ser-Leu], in test [1], the % Adhesion Inhibition came to 38%. This molecule displayed an IC50 in test [2] of 611 µM.

{Acetyl(1-pyrenyl)}-LDTSL (not fully specified (C-terminus); printed as Paa-Leu-Asp-Thr-Ser-Leu) [Paa-Leu-Asp-Thr-Ser-Leu] yielded an IC50 in test [4] of 0.5 µM.

As to Ac-RGLDTSL (not fully specified (C-terminus); printed as Ac-Arg-Gly-Leu-Asp-Thr-Ser-Leu) [Ac-Arg-Gly-Leu-Asp-Thr-Ser-Leu], the % Adhesion Inhibition in test [1] worked out at 35%. In addition, the IC50 in test [2] is 1580 µM.

On to LATSL (modifications not checked) [Pba-Leu-Ala-Thr-Ser-Leu], for which, in test [3], the % Adhesion Inhibition was determined as 100%. Moreover, in test [2], the IC50 worked out at 28 µM.

With Ac-RGLDT (not fully specified (C-terminus); printed as Ac-Arg-Gly-Leu-Asp-Thr) [Ac-Arg-Gly-Leu-Asp-Thr], in test [1], the % Adhesion Inhibition was determined as 48%. Moreover, the IC50 in test [2] was 542 µM.

In test [1], Ac-WRGLDT (not fully specified (C-terminus); printed as Ac-Trp-Arg-Gly-Leu-Asp-Thr) [Ac-Trp-Arg-Gly-Leu-Asp-Thr] returned a % Adhesion Inhibition of 46%. The molecule also yielded an IC50 in test [2] of 725 µM.

In the case of Ac-HWRGLDT (not fully specified (C-terminus); printed as Ac-His-Trp-Arg-Gly-Leu-Asp-Thr) [Ac-His-Trp-Arg-Gly-Leu-Asp-Thr], the % Adhesion Inhibition in test [1] was determined as 49%. In test [2], this molecule registered an IC50 of 584 µM.

Consider PLDTSL (modifications not checked) [Pba-Pro-Leu-Asp-Thr-Ser-Leu], for which the IC50 in test [2] came out at 47 µM.

Ibuprofenoyl-LDTSL (not fully specified (C-terminus); printed as Impa-Leu-Asp-Thr-Ser-Leu) [Impa-Leu-Asp-Thr-Ser-Leu] came in with a % Adhesion Inhibition in test [5] of 44%. In addition, the IC50 in test [4] is 1140 µM.

Ac-LDVSL (not fully specified (C-terminus); printed as Ac-Leu-Asp-Val-Ser-Leu) [Ac-Leu-Asp-Val-Ser-Leu] had an IC50 in test [2] of 71 µM.

For Ac-RGLDTS (not fully specified (C-terminus); printed as Ac-Arg-Gly-Leu-Asp-Thr-Ser) [Ac-Arg-Gly-Leu-Asp-Thr-Ser], in test [1], the % Adhesion Inhibition was 31%. This molecule also registered an IC50 in test [2] of 1790 µM.

In turn, Ac-LDTTL (not fully specified (C-terminus); printed as Ac-Leu-Asp-Thr-Thr-Leu) [Ac-Leu-Asp-Thr-Thr-Leu] showed a % Adhesion Inhibition in test [1] of 98%. In addition, the IC50 in test [2] is 101 µM.

In test [6], LDTSL (modifications not checked) [R1-Leu-Asp-Thr-Ser-Leu, L# 1491 (Table 4)] displayed an IC50 of 3.4 µM.

PhAc-LDTSL (not fully specified (C-terminus); printed as Pha-Leu-Asp-Thr-Ser-Leu) [Pha-Leu-Asp-Thr-Ser-Leu] yielded a % Adhesion Inhibition in test [5] of 38%. The IC50 in test [4] was 2130 µM.

As for Tpa-LDTSL [Tpa-Leu-Asp-Thr-Ser-Leu], the IC50 in test [4] turned out to be 0.3 µM.

In test [5], {Acetyl(1-naphthyl)}-LDTSL (not fully specified (C-terminus); printed as Npa-Leu-Asp-Thr-Ser-Leu) [Npa-Leu-Asp-Thr-Ser-Leu] displayed a % Adhesion Inhibition of 39%. This molecule also displayed an IC50 in test [4] of 548 µM.

In the case of Diphenylacetyl-LDTSL (not fully specified (C-terminus); printed as Dpa-Leu-Asp-Thr-Ser-Leu) [Dpa-Leu-Asp-Thr-Ser-Leu], the IC50 in test [4] came out at 11 µM.

With {Hexanoyl(6-Ph)}-LDTSL (not fully specified (C-terminus); printed as Phx-Leu-Asp-Thr-Ser-Leu) [Phx-Leu-Asp-Thr-Ser-Leu], in test [5], the % Adhesion Inhibition was 32%. Besides, the IC50 in test [4] is 818 µM.

Turning to {Phenylacetyl(4-Ph)}-LDTSL (not fully specified (C-terminus); printed as Bipa-Leu-Asp-Thr-Ser-Leu) [Bipa-Leu-Asp-Thr-Ser-Leu], the % Adhesion Inhibition in test [5] was determined as 54%. The IC50 in test [4] came out at 485 µM.

In turn, Ac-LDASL (not fully specified (C-terminus); printed as Ac-Leu-Asp-Ala-Ser-Leu) [Ac-Leu-Asp-Ala-Ser-Leu] had a % Adhesion Inhibition in test [1] of 47%. For the same molecule, the IC50 in test [2] turned out to be 1000 µM.

Regarding {Benzoyl(4-heptyl)}-LDTSL (not fully specified (C-terminus); printed as Hbz-Leu-Asp-Thr-Ser-Leu) [Hbz-Leu-Asp-Thr-Ser-Leu], in test [5], the % Adhesion Inhibition is 51%. The IC50 in test [4] was determined as 401 µM.

In turn, Ac-WRGLDTS (not fully specified (C-terminus); printed as Ac-Trp-Arg-Gly-Leu-Asp-Thr-Ser) [Ac-Trp-Arg-Gly-Leu-Asp-Thr-Ser] showed a % Adhesion Inhibition in test [1] of 44%. The same molecule registered an IC50 in test [2] of 862 µM.

As to Ac-LETSL (not fully specified (C-terminus); printed as Ac-Leu-Glu-Thr-Ser-Leu) [Ac-Leu-Glu-Thr-Ser-Leu], the % Adhesion Inhibition in test [1] is 98%. For the same molecule, in test [2], the IC50 was 60.7 µM.

In test [5], Ac-LDTSL (not fully specified (C-terminus); printed as Ac-Leu-Asp-Thr-Ser-Leu) [Ac-Leu-Asp-Thr-Ser-Leu (00389-1A)] came in with a % Adhesion Inhibition of 29%. In test [4], this molecule yielded an IC50 of 205 µM.

In the case of {cPrCO(2,2,3,3-Me4)}-LDTSL [Tpc-Leu-Asp-Thr-Ser-Leu], the % Adhesion Inhibition in test [5] amounted to 39%. The molecule also showed an IC50 in test [4] of 121 µM.

Take Ac-LFTSL (not fully specified (C-terminus); printed as Ac-Leu-Phe-Thr-Ser-Leu) [Ac-Leu-Phe-Thr-Ser-Leu]: the % Adhesion Inhibition in test [1] was determined as 29%. The same molecule returned an IC50 in test [2] of 300 µM.

Consider Ac-LDTSL-NH2 [Ac-Leu-Asp-Thr-Ser-Leu], for which, in test [5], the % Adhesion Inhibition was 50% and 71%. Besides, the IC50 in test [4] is 530 µM and 278 µM.

Molecule {Butanoyl(4-pyren-1-yl)}-LDTSL (not fully specified (C-terminus); printed as Pba-Leu-Asp-Thr-Ser-Leu) [Pba-Leu-Asp-Thr-Ser-Leu (00386-1A)] displayed a % Adhesion Inhibition in test [7] of 88%. This molecule registered an IC50 in test [4] of 2.8 µM.

As to Ac-GLDTS (not fully specified (C-terminus); printed as Ac-Gly-Leu-Asp-Thr-Ser) [Ac-Gly-Leu-Asp-Thr-Ser], the % Adhesion Inhibition in test [1] came to 43%. The IC50 in test [2] is 745 µM.

In test [1], Ac-GLDTSL (not fully specified (C-terminus); printed as Ac-Gly-Leu-Asp-Thr-Ser-Leu) [Ac-Gly-Leu-Asp-Thr-Ser-Leu] showed a % Adhesion Inhibition of 58%. In test [2], the IC50 was 339 µM.

On to LYTSL (modifications not checked) [Pba-Leu-Tyr-Thr-Ser-Leu], for which the % Adhesion Inhibition in test [1] is 100%. In test [2], this molecule had an IC50 of 30 µM.

The IC50 is the midpoint of a concentration-inhibition curve.
